Reference: US20190309079A1 (Regeneron, published 2019)
Substitutions are numbered along the chain they refer to. Read-outs that look alike come from different tables or passages of the source.

B1: H4H16650P2 (antibody, V domains shown)
VH: QVQLVESGGGVVQPGKSLRLSCVASGFTFSSDAMYWVRQAPGKGLEWVAVIYYDGNYQYYEDSVKGRFTISRDNSQNTLDLQMNSLRVDDTAVYFCARLNWDYWYLDLWGRGTLVTVSS
VL: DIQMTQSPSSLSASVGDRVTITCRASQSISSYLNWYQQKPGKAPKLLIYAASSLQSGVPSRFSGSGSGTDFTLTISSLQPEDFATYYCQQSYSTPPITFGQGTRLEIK
B2: H4H16679P2 (antibody, V domains shown)
VH: QVQLVESGGGVVQPGRSLRLSCTASGFTFSSYAMYWVRQAPGKGLEWVSVIYYDGSYKYYADSVKGRFTISRDNSKNTLYLQMDSLRAEDTAVYYCASYNWNYWYFDFWGRGTLVTVSS
VL: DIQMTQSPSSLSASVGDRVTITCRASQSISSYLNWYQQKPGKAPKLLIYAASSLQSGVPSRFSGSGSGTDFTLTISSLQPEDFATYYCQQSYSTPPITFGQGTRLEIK

How the values were obtained:
Assay in all cases: cell-based or functional assay
[1] = target: T1, LEPR-A409E (signaling-defective mutant) on HEK293 reporter cells (human, UniProt P48357 22-1165)
T1 sequence: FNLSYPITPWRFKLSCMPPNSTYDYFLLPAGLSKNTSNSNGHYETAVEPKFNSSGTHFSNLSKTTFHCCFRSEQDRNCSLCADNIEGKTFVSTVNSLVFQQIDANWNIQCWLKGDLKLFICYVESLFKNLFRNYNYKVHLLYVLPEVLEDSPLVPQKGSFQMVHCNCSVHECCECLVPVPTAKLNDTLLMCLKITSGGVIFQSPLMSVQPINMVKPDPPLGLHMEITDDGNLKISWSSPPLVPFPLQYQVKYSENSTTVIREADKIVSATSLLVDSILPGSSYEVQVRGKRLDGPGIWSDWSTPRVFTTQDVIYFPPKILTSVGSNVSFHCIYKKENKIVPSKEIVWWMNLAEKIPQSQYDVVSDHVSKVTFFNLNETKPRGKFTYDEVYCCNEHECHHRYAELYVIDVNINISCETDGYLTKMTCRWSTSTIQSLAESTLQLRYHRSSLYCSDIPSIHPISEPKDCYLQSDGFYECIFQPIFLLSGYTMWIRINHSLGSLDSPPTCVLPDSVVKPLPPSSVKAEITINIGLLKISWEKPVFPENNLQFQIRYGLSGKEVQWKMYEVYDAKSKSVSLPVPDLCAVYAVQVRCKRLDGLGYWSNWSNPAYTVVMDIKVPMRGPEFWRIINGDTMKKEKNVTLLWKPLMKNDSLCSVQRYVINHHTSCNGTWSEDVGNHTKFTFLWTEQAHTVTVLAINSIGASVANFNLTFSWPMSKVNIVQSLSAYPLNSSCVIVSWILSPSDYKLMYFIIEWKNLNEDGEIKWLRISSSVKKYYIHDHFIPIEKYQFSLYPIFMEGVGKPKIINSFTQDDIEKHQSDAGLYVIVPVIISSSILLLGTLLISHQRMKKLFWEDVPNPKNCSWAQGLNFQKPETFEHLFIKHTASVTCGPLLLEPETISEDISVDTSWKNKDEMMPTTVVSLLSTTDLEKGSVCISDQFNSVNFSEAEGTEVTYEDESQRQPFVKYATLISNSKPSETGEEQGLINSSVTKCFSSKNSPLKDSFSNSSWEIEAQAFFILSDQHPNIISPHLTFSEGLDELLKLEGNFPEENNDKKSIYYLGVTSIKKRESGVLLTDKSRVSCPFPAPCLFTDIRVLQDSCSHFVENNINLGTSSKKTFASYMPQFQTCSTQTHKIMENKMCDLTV

[2] = target: T2, LEPR-P316T (signaling-impaired mutant) on HEK293 reporter cells (human, UniProt P48357 22-1165)
T2 sequence: T1 sequence with P295T, E388A

[3] = target: T1, LEPR-A409E (signaling-defective mutant) …; remark: listed apart in the source
[4] = target: T2, LEPR-P316T (signaling-impaired mutant) …; remark: listed apart in the source

| Binder | EC50 (read off the curve), pSTAT3 Y705/STAT3 densitometry [1] | EC50 (read off the curve), pSTAT3 Y705/STAT3 densitometry [2] | EC50 (read off the curve), pSTAT3 Y705/STAT3 densitometry [3] | EC50 (read off the curve), pSTAT3 Y705/STAT3 densitometry [4] |
| --- | --- | --- | --- | --- |
| B1 | ~2e-10 M | ~4e-10 M |  |  |
| B2 |  |  | ~6e-10 M | ~3e-10 M |
